Laboratory results: patent US9889179B2, “FGF-18 compound dosing regimen” (MERCK PATENT GMBH, priority 2014, dated 2018)
Entries after “also recorded” stand apart in the source; their conditions may differ. Read-outs that look alike come from different tables or passages of the source.

Assays:
[1] = system: medial meniscal tear in the right knee joint; type: in vivo, Male Lewis rats; details: for swelling scores versus vehicle controls: days 24-29, 31, 36-43
Protocol: Male Lewis rats underwent surgery to induce a medial meniscal tear in the right knee joint. Animals were dosed i.a. with FGF-18 (10 μg/joint) on days 21, 28, and 35 and dosed orally with diclofenac (either 1 mg/kg or 3 mg/kg) or vehicle on days 21-23, 28-30, and 35-37, then terminated on day 42 or day 63. Serum was collected and evaluated for alpha 2 macroglobulin (α2MG) levels on days −3, 21, 42, and 63. α2MG is an inflammation serum biomarker. The link between α2MG and inflammation has already been shown (Kuribayashi et al., 2013).

[2] = system: RA; details: human, in vivo; cited from earlier work
[3] = system: OA symptoms; details: cited from earlier work
[4] = system: medial meniscal tear in the right knee joint; type: in vivo, Male Lewis rats
Protocol: After the sacrifice, the right knee was removed and decalcified in 5% formic acid for 4-6 d before cutting in half in the frontal plane and embedding in paraffin wax. Three sections were cut in 200 μm steps, stained with toluidine blue, and analyzed using ImagePro Plus™ software (Media Cybernetics). In scoring the three sections of the joint, the worst-case scenario for the two halves on each slide was determined for the cartilage lesion as the cartilage degeneration width (μm). This reflects the areas of tibial cartilage lesion in which both chondrocyte and proteoglycan loss extend 50% of the cartilage thickness. The measurement was taken over the area of greatest lesion severity in each of the three zones across the tibial surface.
A treatment group Mean±SE for each score and measurement was determined.
Data was analyzed using a one-way analysis of variance (1-way ANOVA) or Kruskal-Wallis test (non-parametric), along with an appropriate multiple comparison post-test. Right knee caliper measurements were compared to left using a Student's t-test. Unless indicated, Bolder BioPATH, Inc. performs statistical analysis on raw (untransformed) data only. […] Significance for all tests was set at p≦0.05. Comparisons were made between each group and the vehicle control group, as well as between pairs
Male Lewis rats underwent surgery (under anesthesia with Isoflurane) to induce a medial meniscal tear in the right knee joint. Animals were dosed IA with vehicle or FGF-18 on one of two different regimens (see table below), then terminated on day 105. Knees had caliper measurements taken at baseline and days 21, 42, 56, 84, and 105. Serum was evaluated for α2 macroglobulin levels at baseline and on days 21, and 105, as well as one week after the final dose (day 42 or 84). Right knees were collected for histopathology evaluation.

[5] = system: rat model of OA (ACLT with tMx); experiment: ACLT+tMx rat model of OA, intracycle dosing frequency of sprifermin (Example 6); type: in vivo, male Lister Hooded Rats
Protocol: The goal of this study was to evaluate the effect of different intracycle dosing frequency of the same total dosage (3×1 μg) of sprifermin on cartilage volume in a rat model of OA. The anterior cruciate ligament transection (ACLT) with resection of the medial meniscus (tMx) was performed as disclosed in Example 1. Joints from male Lister Hooded Rats (200-260 g, Charles River) were used in this study. Animals were euthanized 18 weeks post-surgery.
The changes in the joint are related to clinical assessments in OA (cartilage loss, osteophytes, subchondral sclerosis). One μg sprifermin in saline was injected three times either weekly, every 2nd, every 3rd, every 4th or every 5th week and compared to appropriate vehicle groups. Body weight, joint diameters and clinical health scores were investigated weekly.

[6] = system: full-thickness defect in the articular cartilage of the trochlear groove; type: in vivo, New Zealand White rabbits
Text: 60 adult male, naïve, New Zealand White rabbits were used for this study. Animals were approximately 3-4 months of age. Rabbits underwent surgery for creation of the cartilage defect right knee. A 2 mm by 6 mm full-thickness defect was made in the articular cartilage of the trochlear groove. The microfracture was created using 18 gauge needles. Two 3 mm deep microfractures were made through the subchondral bone at the base of the defect, one proximally and one distally. Each microfracture hole was approximately 1.5 mm in diameter and the holes separated by 2 mm. The experiment consisted of the following six treatment groups, with 10 animals in each group for a total of 60 rabbits (Table 2). Rabbits in Groups 3, 4, 5 and 6 were treated with intra-articular rhFGF-18 in either one cycle of three weekly injections of 100 μg of rhFGF-18 (Group 3 and 5) or one cycle of three monthly injections of 100 μg of rhFGF-18 (Group 4 and 6). All animals were euthanized and necropsied 6 months after surgery. [table]

[7] = system: Primary articular porcine chondrocytes; experiment: Porcine chondrocyte proliferation with or without IL1α challenge (Example 4); type: cell-based, pig; details: 100 ng/mL; for increase in the cell number versus control (medium, no IL1α): 8 days of culture; for stimulation of proliferation versus control (medium, IL1α 10 ng/mL): 8 days
Protocol: Porcine chondrocytes were isolated from the cartilage of a femoral head of a pig hip (pigs were approximately one year old). After dissection of the joints, the cartilage was harvested and digested for 45 minutes with collagenase 0.25% ( 1/10 dilution of collagenase NBG4 2.5% in HAM's F12) at room temperature. The loosened cells were discarded and the cartilage further digested overnight with collagenase 0.1% ( 1/25 dilution of collagenase NBG4 2.5% in HAM's F12) at 37° C. to extract the chondrocytes. For this study, the chondrocytes were cultured in a monolayer.
Primary articular porcine chondrocytes were stimulated or not with 10 ng/mL IL1α and were either treated immediately or 6 hours later with anakinra 100 ng/mL and/or trFGF-18 100 ng/mL. Each condition was performed in 4 or 6-plicate. As a control, cells were also cultured with anakinra alone, trFGF-18 alone or in the absence of any treatment (medium).
Pre-culture: After cell isolation porcine chondrocytes were inoculated at 20,000 cells/cm^2 and cultivated for one week in complete HAM's F12. Cells were then harvested with accutase, counted and used as described below.
For cells treated directly with anakinra: Chondrocytes were inoculated in a 24-well plate at 15,000 cells/well in 0.5 mL of complete HAM's F12. Then 0.25 mL of trFGF-18 400 ng/mL and/or 0.25 mL of anakinra 400 ng/mL were added to the cells. In the challenged samples, 10 μL of IL1α at 1,000 ng/mL were also added to the cells. trFGF-18, anakinra and IL1α were all diluted in complete HAM's F12. The final volume in the culture well was adjusted to 1 mL with complete HAM's F12. Final concentrations were 10 ng/mL IL1α, 100 ng/mL trFGF-18 and 100 ng/mL anakinra and the total culture time was eight days. A complete medium change was performed after four days. N=4.
For cells treated with anakinra and trFGF-18 6 hours after the IL1α challenge: Chondrocytes were inoculated in a 24-well plate at 15,000 cells/well in 1 mL of complete HAM's F12 containing or not containing IL1α 10 ng/mL. After 6 hours the medium was removed and replaced with 0.25 mL trFGF-18 400 ng/mL and/or 0.25 mL of anakinra 400 ng/mL. In the challenged samples, 0.25 mL of IL1α at 40 ng/mL was also added to the cells. trFGF-18, anakinra and IL1α were all diluted in complete HAM's F12. The final volume in the culture well was adjusted to 1 mL with complete HAM's F12. Final concentrations were 10 ng/mL IL1α, 100 ng/mL trFGF-18 and 100 ng/mL anakinra and the total culture time was eight days. A complete medium change was performed after four days. N=6.
After eight days of culture, cells were harvested with accutase and resulting cell suspensions were analyzed for cell concentration and cell viability with a ViCell™ cell analyzer (from Beckman Coulter). […]

[8] = system: ACLT+tMx model of instability-induced OA; experiment: ACLT+tMx model of instability-induced OA, cartilage matrix deposition by Safranin-O (Example 1); type: in vivo, male Lewis rats
Protocol: The anterior cruciate ligament transection with resection of the medial meniscus (ACLT+tMx) model of instability-induced OA was performed in male Lewis rats 10-15 weeks of age. Briefly, under anesthesia with Isoflurane, the joint capsule of the right knee of each rat was opened, the anterior cruciate and the meniscus fixating ligaments were sharply transected, the meniscus was removed and the capsule, muscles and skin closed by sutures. Animals were randomly allocated into 10 groups of n=10 each. The following dosages were investigated: 0, 0.3, 1, 3 and 10 μg per intra-articular injection. Groups 1-5 received one cycle of three single injections at weekly intervals, group 6-10 three single injections at monthly intervals. Intra-articular treatment was started three weeks post-surgery. At this time pathophysiological changes are already mainifest, e.g., cartilage matrix loss. Animals were euthanized 17 weeks after surgery and joints were investigated.

For O=C(O)Cc1ccccc1Nc1c(Cl)cccc1Cl [diclofenac, 2-(2,6-dichloranilino) phenylacetic acid], the knee caliper measurements ([1]; diclofenac 1 mg/kg oral with FGF-18 i.a., any other time point) was “not significantly affected”, the knee caliper measurements ([1]; diclofenac 1 mg/kg oral with FGF-18 i.a., day 42) was “significantly reduced” and the “swelling scores versus vehicle controls” value ([1]; diclofenac 1 mg/kg oral with FGF-18 i.a.) was “significantly reduced”. The knee caliper measurements ([1]; diclofenac 3 mg/kg oral with FGF-18 i.a., any other time point) was “not significantly affected”, the knee caliper measurements ([1]; diclofenac 3 mg/kg oral with FGF-18 i.a., day 42) was “significantly reduced” and the “swelling scores versus vehicle controls” value ([1]; diclofenac 3 mg/kg oral with FGF-18 i.a.) was “significantly reduced”. For the same molecule, the “serum α2MG levels, all groups” value ([1]; diclofenac 1 and 3 mg/kg with FGF-18, day 63) was “similar” and the “time for which effects on knee swelling were evident after the final dose of diclofenac” value ([1]; diclofenac 1 or 3 mg/kg with FGF-18) was “approximately one week”.

In the case of “anakinra: recombinant, nonglycosylated form of human interleukin-1 receptor antagonist (IL-1Ra), SEQ ID NO: 3”, the “joint damage in RA patients” value [2] is given as “reduction in frequency and severity of joint damage”, the “pain in RA patients” value [2] is given as “pain reduction” and the pain versus placebo ([3]; anakinra 150 mg) is given as “tendency toward pain reduction”. The “improvements in OA symptoms compared with placebo” value ([3]; anakinra therapy) was “not significantly associated with improvements”.

B1: trFGF-18: recombinant truncated form of human FGF-18 (170 amino acids, SEQ ID NO: 2), produced in E. coli (protein)
chain: MEENVDFRIHVENQTRARDDVSRKQLRLYQLYSRTSGKHIQVLGRRISARGEDGDKYAQLLVETDTFGSQVRIKGKETEFYLCMNRKGKLVGKPDGTSKECVFIEKVLENNYTALMSAKYSGWYVGFTKKGRPRKGPKTRENQQDVHFMKRYPKGQPELQKPFKYTTVTK
modifications: Recombinant truncated FGF-18(trFGF-18)
In the case of B1, the “extent of injury over the tibial surface (collagen damage), histopathology” value ([4]; 10 μg IA, day 105) is reported as “generally increased”, the “severity of tibial injury, histopathology” value ([4]; 10 μg IA, day 105) is reported as “reducing its severity” and the “structural benefit (total joint score, substantial tibial cartilage degeneration width)” value ([4]; monthly injection scheme versus other regimens, 10 μg IA) is reported as “highest”. For the same molecule, the overall morphology ([4]; three injections once monthly (Group 5; days 21, 49, 77)) was “best overall morphology”, the “cartilage denudation, stereology” value ([5]; 3 x 1 μg/joint, 18 weeks post-surgery) was “prevented more or less complete cartilage denudation” and the “cartilage volume on medial tibia” value ([5]; One μg/joint once every 3rd week, three injections in total, listed as rhFGF-18) was “statistically significant difference over saline; also recorded: most beneficial structural outcome”. The “cartilage volume compared to placebo” value ([5]; all groups treated (weekly to every 5th week)) was “higher cartilage volume values”, the joint diameters ([5]; between injections every 2nd, 3rd or 4th week) was “No significant differences” and the “AUC of joint diameters” value ([5]; injected every 5th week) was “the same as with saline injections”. For the same molecule, the “joint diameters (AUC of joint diameter difference)” value ([5]; injections in week 3, 4 and 5 versus week 3, 8 and 13) was “significantly higher”, the body weight gain ([5]; intra-articular injections, 3 x 1 μg) was “no influence” and the “animals with intercondylar groove filled with cartilage” value ([6]; Group 4: no microfracture, monthly x3, nearly normal to slightly roughened or granular cartilage) was 6/9. The “animals with intercondylar groove filled” value ([6]; Group 6: microfracture, monthly x3, finely granular to granular cartilage) was 3/10, the “animals with groove 50% filled to nearly completely filled” value ([6]; Group 6: microfracture, monthly x3, granular to coarsely granular cartilage) was 7/10 and the “increase in defect fill percentages” value ([6]; no microfracture, monthly for three months, significant) was 48%. The necropsy findings ([6]; rabbit, in vivo) was “stimulation of osteophytes on the medial and lateral trochlear ridges”, the “increase in the cell number versus control (medium, no IL1α)” value ([7]; first experiment (direct treatment, N=4)) was 11.25 fold and the “increase in the cell number versus control (medium, no IL1α)” value ([7]; second experiment (6-hour delay, N=6)) was 7.75 fold. The “stimulation of proliferation versus control (medium, IL1α 10 ng/mL)” value ([7]; first experiment (direct treatment)) was 2.38 fold, the “stimulation of proliferation versus control (medium, IL1α 10 ng/mL)” value ([7]; second experiment (6-hour delay)) was 2.44 fold and the “dose at which neo-formation of cartilaginous tissue became significant” value ([8]; lateral tibia, independently of the injection regime (three i.a. injections weekly or monthly), 17 weeks after surgery) was 1 μg/joint. The “dose at which neo-formation of cartilaginous tissue became significant” value ([8]; medial tibia, one-monthly regimen, three i.a. injections) was 0.3 μg/joint and the “dose at which neo-formation of cartilaginous tissue became significant” value ([8]; medial tibia, one-weekly regimen, three i.a. injections) was 1 μg/joint.
